Reference: the supplement of paper PMC12636428

Test system: Saccharomyces cerevisiae
Assay: transcriptional activation domain activity (GFP:mCherry ratio, weighted mean of sorted bins, harmonized to initial dataset scale) (arbitrary fluorescence ratio units); higher = stronger transcriptional activation
Details: beta-estradiol 1 µM; induction time 4 h
Summary of the method: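 The listed activation activity is a read-weighted mean of bin median fluorescence, averaged across barcodes and linearly mapped onto the initial dataset scale. Barcoded tiles, fused to an estradiol-inducible synthetic transcription factor, were integrated at URA3 in yeast diploids bearing a GFP reporter. Cells were held 4 hours at 30 °C in SC with 1 uM beta-estradiol, sorted into 8 GFP:mCherry bins, and sequenced, and tiles with fewer than 50 reads were excluded.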

## IIEEQSGEDDDLPGHKKQRKESLAELLASEPADGTSPRRKSGQIKRTVPAVVL
  transcriptional activation domain activity: < 6570

## IIFCLGRYGLICSLMYTNTVLIFLPPSRMSAQASLTCQTFASILVFCIVLSAI
  transcriptional activation domain activity: 73300

## IIFLIMRAMVGLQVLNENVIEKILMYLKLQWVAVFIYWQVLWLVKFSLLIFFK
  transcriptional activation domain activity: 75400

## IIFVELYSYLLYYIYLNIRIFLRFSSSIVLDFELFCFPPSHFPFNFFVCILFT
  transcriptional activation domain activity: 74000

## IIFYLIISIIIIIILLLFYYYLLFIIMFFIQDVGCWLLLWCFVGLFELLLQLL
  transcriptional activation domain activity: 28700

## IIHLVNLAQVTVFLVHRILYGIIPLFEIQTCAYFPLLVSLWHMTYILFYVVMF
  transcriptional activation domain activity: 36100

## IIKLLVFTLWVLDSMHLILCTIAIYWYLIRNFNNTTNLQLNHWSMNLQTDCNG
  transcriptional activation domain activity: 43600

## IIKSLVGCLFFVLCPIVLVHSTSCYPRILYPLSYLLFLFWVPHLLFACRVTFT
  transcriptional activation domain activity: 56400

## IILDLLLRFSKVENVISQAVDSPPMGRLGCCAIVTGSAVAWALCTATRFRLVL
  transcriptional activation domain activity: 52600

## IILRIVGAPNWIQFWSLGRNQVDLLLVISTCVIQLPMIQNLDIYKYLTIFQVF
  transcriptional activation domain activity: 81300

## IINHLIILYLNRHICVMGLLHVPTFLEYYNSLDDPLNDAMVLAVCIDALVNLR
  transcriptional activation domain activity: 42700

## IIPKIYFYGGYKGLLLFISSLSLTLLCYILITRPILSFLIVSDIVLNVIINIY
  transcriptional activation domain activity: 63400

## IIQCLVLGKYTKCAPRTIETLLLYLHLKYNQHEDNQMEIWVLLGVIVRLALRM
  transcriptional activation domain activity: 44700

## IIQKLCFITVKLFFTKYIPLQAILINLILIGYLMFVVRHFPYRYTTLNNLELI
  transcriptional activation domain activity: 55000

## IIRARIFSYLYYGVKKFTFLFPINTVITNMAATLLCAVLVIYCTLTILPMIYY
  transcriptional activation domain activity: 62200

## IIRLCSYFQRYVDLPIHNIYDRIAAHASTEILFYANALKEDFFRFGLVYRLYA
  transcriptional activation domain activity: 59200

## IISARDAGNGEEAAAQNVLNCFEYQFPNLQTIQSLVHEQTLLSQLASSATPHS
  transcriptional activation domain activity: 75200

## IISGAGSNMERELFYCLQNVRFRGPLLRVILLVLKACWLLKNLWVYWLIVYHR
  transcriptional activation domain activity: 45800

## IIVICSVALYKVVSITGVGLVCLLLAGYLCFFNLFCSNVIRLSLLFLPINARP
  transcriptional activation domain activity: 58000

## IIVKTEIMIRNRHPRFLRITLDSVSNLVRLWYIVRLKKLTYYYLLWEFSLLPL
  transcriptional activation domain activity: 49700

## IIYVPQARLMNFFNALTTQSFLYFWAVCLMRLHIAAFLPNLHNGKPYLITVYT
  transcriptional activation domain activity: 47500

## IKDFEAHLFAIILYHLSFFGCRALGVVSMLKCQGQMCDPWSLMYRGLYVFYRL
  transcriptional activation domain activity: 35900

## IKDIEINDLRNRYTLTKGAVQKKGPRLVRPLRISSSPECTEPRPSPCLSVSLS
  transcriptional activation domain activity: 45600

## IKFGVPVALIVIIAAVVGGVLGSRASKNSSASSSAAGDSSSPSGEAAASGAAV
  transcriptional activation domain activity: 48300

## IKIIQLLGTRYLYFMIKELRGALLRGYQMHVLGYTVHAILASIDLNPACLKAC
  transcriptional activation domain activity: 77200

## IKITKEHKWIIVFKIRYKLFKYLVILFKLTNGASLFSYFINSLLFYNLLNNFY
  transcriptional activation domain activity: 54600

## IKKGAASPSKKGGRGSAKAKKEESDDEDVKPAKKAKGAAAAKGKPKGKALKKE
  transcriptional activation domain activity: 24200

## IKLMDLLIILLKIHGFRLKYFLLTNDLFPKIMLLCRANHLSLQLCPVRFLRIC
  transcriptional activation domain activity: 81100

## IKLMTLLYVFCRCSAVANVIYTVAITSSLDTLRVTYRISSVISLLCRTSVMMV
  transcriptional activation domain activity: 43300

## IKPEEPVVAAAEEPATAPVVEETKPEEVAAEVAAEEDAAPVEEATPAEEVKPE
  transcriptional activation domain activity: 12400

## IKPEIMGLLEIHRSIAQDIGVSLLTELINPNVSIGKMLRNCITVFTLINTLRH
  transcriptional activation domain activity: 77500

## IKQQWSVFVLWSIWYRIAFTPVFWRNLGRRNLGGLIMILMNEYREVILFYWDM
  transcriptional activation domain activity: 48500

## IKVQYKGGLIGHQFKDLAQIMSFILYDLGPDTLIECWVRLGWFMSLLWYPKIQ
  transcriptional activation domain activity: 58700

## ILAGCCLGYACNKWGSITVFKYYGIPWLFLNHWFVMITYLHHTDPTIPHYRGK
  transcriptional activation domain activity: 73500

## ILALNLSCFDTLCYCYGFWSRLFFYLLLLLMHHLHYHAIQNQSLDLFALHIYR
  transcriptional activation domain activity: 78000

## ILALSWGGGLYPWASYHVLVPLILGFCILVVFALYEIYMPLKYPLIPMSLFLN
  transcriptional activation domain activity: 40400

## ILCASLHLLGHLPFRFCDVVLLFICHMFQELGRFDLIPGPVAHLTLRHSIVAA
  transcriptional activation domain activity: 63500

## ILCLSFSIKVLLCFLLIFFPLNVEPPPPDFFFHFLCLWFFFVISFLRFHLLYF
  transcriptional activation domain activity: 59900

## ILDDFFNDGACNEINVILDKAKVRRDFLDYFMPEKEVKAEGDRSIVYILSNPK
  transcriptional activation domain activity: 59200

## ILDLTVRFWGNVKLLRRLWNGIYHFASYHMSSMTRAKVTIVSDLLLGTYILKR
  transcriptional activation domain activity: 70700

## ILENKGLNEDLSSHIYEKEAPKFDSDIDISRFGTNDAVIFNNDGWDTSLPIDF
  transcriptional activation domain activity: 102000

## ILFCSWLSFRQLFFLFICNTHHWVFEDYFCHFSFFLSLFLMAITWKCFFFFFF
  transcriptional activation domain activity: 38900

## ILFFCLVANSDKLHMIIFAVVPIRCVFPVFFLIFEVIINCWLPLVWHLLYNLT
  transcriptional activation domain activity: 43800

## ILFIGGLFLIIAPQMTFHVPAYRIRLCEAACFLCRNFLVFLKRKSVAVIVEMF
  transcriptional activation domain activity: 59000

## ILFMLFYYLSIYFIGTLGGIWLATYIMSFRENLVIQLVIARVCFIVALGVVMA
  transcriptional activation domain activity: 35400

## ILGKLLYHMILLYLCVDLSLSEQIEHLSAATHLTMILYRLGGKDFIPTNLYIN
  transcriptional activation domain activity: 45000

## ILGRLCRVRVLGFNDVLVRVDIILCLHLDTPAEAVFRVQRLVSLMGMLALQVF
  transcriptional activation domain activity: 41300

## ILHCFIIPLLFLVGFLSFLSLPCLLAVAFLIFMSILNLLLLGFLLLLWILLFF
  transcriptional activation domain activity: 41200

## ILHELTIVVACHRWNHGLFFFFQMMQIPIIMYSDKIPWFRDQHALRNWCFWLA
  transcriptional activation domain activity: 58000

## ILIIVFFYVHFLGVLIFLVGGYYHTKVAHGSYWIWPSFVFWAFDRFVRVVRLV
  transcriptional activation domain activity: 48500

## ILKRNMYFIIPLLLLLLGTVALAIYDTIWLLMRTYARGHLSHSHRFWSLLFYS
  transcriptional activation domain activity: 55700

## ILLAAHQILFIFCCWLFTITVCIPLSVIYYLFAILRLIKHYLLHRRPLIAYFL
  transcriptional activation domain activity: 56900

## ILLANLECFPKEKIWDKTIVGGRCLDPIQVKLIWVYNAAVNLGLDVVILILPQ
  transcriptional activation domain activity: 32200

## ILLEVLGKVRGDHTPKRQETSVQGIRRRFRDDLAFLCEYDKGGIACTAIGIEE
  transcriptional activation domain activity: 12500

## ILLGLLVLVLLYANVVLIIYHEPTFRRPLDMAFIHAPIRLFFILPFGVLFWYS
  transcriptional activation domain activity: 63100

## ILLHIYVLGVCYFTFPLFLNGFAHWGLWKLDRITPVENLVQQYILKPYFKSYC
  transcriptional activation domain activity: 62900

## ILLIVRFIWRSPYLISTGCGSLINDFSYVNIFLYSKIFCERFFIFLSLVIFIK
  transcriptional activation domain activity: 66800

## ILLMELILHTVYCVAISKWGHWEAFSVYEISLIGYMRLSFIWLKLLVIWRFAR
  transcriptional activation domain activity: 88100

## ILLMLATGQWRLLIDALVSMSDIEVQFFLRQLALCKLVNWKASIVNGYPSPVE
  transcriptional activation domain activity: 52400

## ILLPIFGLANRDKNVELMRWALKQCNRTLRRKRAHIWYFSRWLMRPMLPQQRS
  transcriptional activation domain activity: 66600

## ILLRRAWTVNAEMLLHKFDPRLFPLYFRILYPTWDTCSIPAPSRLVGAAKQWL
  transcriptional activation domain activity: 46700

## ILLSLFANHFPWDFRDALCLEFWVVAFRNLEMLEYFDGDLLLSEHGGTCTVSK
  transcriptional activation domain activity: 34800

## ILLTCLLQICCRFVQEKQTRCLQILLHYIGSQASMHAGARPLELLCRSLLEAM
  transcriptional activation domain activity: 40900

## ILLVALPLFSFGFESFLPFGKDSGILYYFWLYSTRVFCPCMGFLWAIFALLPF
  transcriptional activation domain activity: 59700

## ILLYHPNFLLIAISILYIIWCFMVLIMFCVVLPTAFLLLRAALFYPPHGREFI
  transcriptional activation domain activity: 25900

## ILMLFLGCLVICDLAFNIIVTILAFTTGFTHLLLSLVPTIPPPNCFLVHWQNH
  transcriptional activation domain activity: 54600

## ILNITPYAAGQFGYYYGTCWFNDPRPDVQFRWLLGSQSVWILLMSTGEVVFFF
  transcriptional activation domain activity: < 6570

## ILNVTVRLNFLTFVLQYLMDTDYLSYYFTPLVSFWFLAIWIIMYAGHTWNKIP
  transcriptional activation domain activity: 67300

## ILPRWIQVAITFVALLAVSCIVMVVGLIVKYWTLSVSFGHFLSRFAVLRYIVL
  transcriptional activation domain activity: 58500

## ILQCIQYFANFRRDSAWMKLIVWLLFLSFPGLFGLLPHFFVYRFLDTLHVLLI
  transcriptional activation domain activity: 68900

## ILQHILLWSLMVMTGCCPGSFFITSYYPNEWLKFLDGYMIQPYVTTFMIRGFL
  transcriptional activation domain activity: 56900

## ILQNDLKFDQILESSYNNSNHTVSKFKVSHYVEESGLLDILMQRYGLTAEDFE
  transcriptional activation domain activity: 57600

## ILRCYLQYIFALTLVFFWLLYTLTCSISQFSRHLRSWTCWIFYSLYRRILFLG
  transcriptional activation domain activity: 56200

## ILRKLGFIVHVQLPYNLMINYLRILGLEDDEVISRKAWNYLNDGLRTNIYVTY
  transcriptional activation domain activity: 55800

## ILRLSVVLKPHHYWWFLLHLLLILLLVAFTCSSFLILKHGPVWILALFLLLHI
  transcriptional activation domain activity: 45400

## ILRLWQIFWVAAKTDHMSYPRFEAPGCGDFCRDWKVLVAIILIRTKLTMGTRC
  transcriptional activation domain activity: 52200

## ILRVERTGHSGTLDPKVTGCLIVCIDRATRLVKSQQGAGKEYVAVIRLHGKLP
  transcriptional activation domain activity: 33800

## ILSPTLFLLFSSSPLPLLFYPHFPFLVLTSYFLLLLYSSVSLFIAFLHSLFLI
  transcriptional activation domain activity: 41300

## ILSRLSLCIGIIIAFVFCTIPLLTYHRDSPVLRCSLYNIIDNFFLPLYLFIVW
  transcriptional activation domain activity: 53400

## ILTILYKSNAVFFLEWMVFVAYQIFNLFAWVFNCWGKILPKVGSFFLYVSLVS
  transcriptional activation domain activity: 63000

## ILVGGFGLELGMNGVYPWYIFLFLACLASDFEFTMLFELTVGFFFPPLLFMCL
  transcriptional activation domain activity: 51800

## ILVHCIRLWTGFLVACFACLILLICLGACNLEMGIVVWSFCLISAGLHSVAVG
  transcriptional activation domain activity: 16500

## ILVLIVSNLRLMIENFRKYGVLICIRCHDYRRQDVVYGSILYFLVPCHLFVAY
  transcriptional activation domain activity: 51300
